The results in this text go back to patent US20260250352A1.

Holding throughout (assay): cell-based or functional assay
Test [1] has as its target APRIL + BAFF in combination (human).
The target of test [2] is recombinant human APRIL (human) (UniProt O75888).
The target in test [3] is APRIL + BAFF in combination (human). This is another data set of the same source.
Test [4] concerns the target single chain BAFF-APRIL-APRIL heterotrimer (BAA) (human) (UniProt Q9Y275).

Where two headings read alike, the source gives them in different places.

Chain of single chain BAFF-APRIL-APRIL heterotrimer (BAA) (human) (Q9Y275 other isoform, or with tags, fused parts or gaps limits assumed): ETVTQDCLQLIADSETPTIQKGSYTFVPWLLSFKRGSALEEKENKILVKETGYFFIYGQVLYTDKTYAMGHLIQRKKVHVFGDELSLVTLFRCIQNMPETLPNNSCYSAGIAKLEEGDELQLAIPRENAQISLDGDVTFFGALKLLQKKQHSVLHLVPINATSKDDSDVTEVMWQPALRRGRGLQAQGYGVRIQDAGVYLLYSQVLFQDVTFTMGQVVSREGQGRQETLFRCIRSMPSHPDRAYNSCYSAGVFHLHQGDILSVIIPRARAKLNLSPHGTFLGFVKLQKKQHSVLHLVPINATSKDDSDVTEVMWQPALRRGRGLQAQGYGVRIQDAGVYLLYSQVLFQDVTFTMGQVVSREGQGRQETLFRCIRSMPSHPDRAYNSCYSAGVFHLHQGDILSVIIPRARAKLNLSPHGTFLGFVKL

B1: 26 TACI CRD2-Fc (Fc fusion)
chain: SLSCRKEQGEYYDHLLRDCISCASICGQHPKQCADFCENKLRSGSGGGGSEPKSSDKTHTCPPCPAPEAEGAPSVFLFPPKPKDTLMISRTPEVTCVVVDVSHEDPEVKFNWYVDGVEVHNAKTKPREEQYNSTYRVVSVLTVLHQDWLNGKEYKCKVSNKALPAPIEKTISKAKGQPREPQVYTLPPSRDELTKNQVSLTCLVKGFYPSDIAVEWESNGQPENNYKTTPPVLDSDGSFFLYSKLTVDKSRWQQGNVFSCSVMHEALHNHYTQKSLSLSPG
For the molecule B1, in test [1], the IC50, Jurkat/NF-kB/TACI reporter came out at 1.39 nM; the IC50, TACI/Jurkat/NF-kB reporter stood at 3.1 nM; the fold better IC50 than anti-APRIL mAb plus belimumab was determined as 3.5 fold; the fold lower IC50 than telitacicept was more than 50 fold.

B2: Telitacicept, O14836 13-118 (Fc fusion, not shown: a dimerising Fc or GST)
chain: SRVDQEERFPQGLWTGVAMRSCPEEQYWDPLLGTCMSCKTICNHQSQRTCAAFCRSLSCRKEQGKFYDHLLRDCISCASICGQHPKQCAYFCENKLRSPVNLPPEL
modifications: here or on the partner: The drug is a disulfide-linked Fc-fusion homodimer. Only one TACI ECD arm is given, and the Fc is left out.
Regarding B2, in test [1], the IC50, Jurkat/NF-kB/TACI reporter was found to be 16.8 nM and the IC50, TACI/Jurkat/NF-kB reporter is more than 200 nM.

B3: Belimumab (antibody, INN chains, looked up, V domains shown)
VH: QVQLQQSGAEVKKPGSSVRVSCKASGGTFNNNAINWVRQAPGQGLEWMGGIIPMFGTAKYSQNFQGRVAITADESTGTASMELSSLRSEDTAVYYCARSRDLLLFPHHALSPWGRGTMVTVSS
VL: SSELTQDPAVSVALGQTVRVTCQGDSLRSYYASWYQQKPGQAPVLVIYGKNNRPSGIPDRFSGSSSGNTASLTITGAQAEDEADYYCSSRDSSGNHWVFGGGTELTVLG
As for B3, the IC50, Jurkat/NF-kB/TACI reporter in test [2] is 215000 nM; in test [3], more than 100 nM. Further, in test [2], the IC50 relative to TACI 30-110-Fc worked out at 55.8.

B4: Anti-APRIL mAb based on the published VIS649 (sibeprenlimab) sequence (antibody, INN chains, looked up, V domains shown)
VH: QVQLVQSGAEVKKPGASVKVSCKASGYTFTDYTIHWVRQATGQGLEWMGWIYPLRGSINYAQKFQGRVTMTADKSISTVYMELSSLRSEDTAVYFCARHGAYYSNAFDYWGQGTLVTVSS
VL: EIVMTQSPATLSVSPGERATLSCRASESVDNDGIRFLHWYQQKPGQAPRLLIYRASTRATGIPARFSGSGSRTEFTLTISSLQSEDFAVYYCQQSNKDPYTFGGGTKVEIK
With B4, the IC50, TACI/Jurkat/NF-kB reporter came to 5.1 nM in test [2] and 0.144 nM in test [4].

B5: Anti-APRIL mAb based on the published BION-1301 sequence (antibody, INN chains, looked up, V domains shown)
VH: B4 VH
VL: B4 VL
For B5, in test [2], the IC50, Jurkat/NF-kB/TACI reporter came out at 4.9 nM and the IC50, TACI/Jurkat/NF-kB reporter was determined as 21.9 nM. In addition, in test [3], the IC50, Jurkat/NF-kB/TACI reporter is more than 100 nM and the IC50, TACI/Jurkat/NF-kB reporter is more than 200 nM.
